Experimental findings from article PMC5986005, “Catalysis of transthiolacylation in the active centers of dihydrolipoamide acyltransacetylase components of 2‐oxo acid dehydrogenase complexes” (FEBS Open Bio, 2018) are described below.

The target in data set [1] is T1, CDo (E2o catalytic domain) (Escherichia coli, UniProt P0AFG6).
T1 construct: gene sucB; separate dihydro-LDo (residues 1-105) as acyl acceptor
The data set is described as follows: reverse succinyl transfer to dihydro-LDo, ESI FT-MS. The format is biochemical. The note with it: 40 μM dihydro-LDo, 0.10 mM TCEP, 0.15 mM succinyl-CoA, 35 mM NH4HCO3 pH 7.5, 30 °C.

In data set [2] the target is T2, E2o (Escherichia coli, UniProt P0AFG6, H376W).
T2 construct: gene sucB; full-length E2o alone, pCA24N plasmid, expressed in E. coli, PEG precipitation and size exclusion
Kind of data set: intrinsic Trp fluorescence quenching (ex […] nm). Type of data set: binding.

The target in data set [3] is T3, E1o (with LDo as acyl acceptor) (Escherichia coli, UniProt P0AFG3).
T3 construct: gene sucA; E1o purified on Ni-Sepharose; acceptor is the separate E2o lipoyl domain (residues 1-105, His6-tagged, lipoylated in vitro); with Dihydrolipoyllysine-residue succinyltransferase component of 2-oxoglutarate dehydrogenase complex
Kind of data set: reductive acylation of LDo, ESI FT-MS. The format is biochemical.

Substrate in data set [4]: CC(C)(COP(=O)(O)OP(=O)(O)OC[C@H]1O[C@@H](n2cnc3c(N)ncnc32)[C@H](O)[C@@H]1OP(=O)(O)O)[C@@H](O)C(=O)NCCC(=O)NCCS
Kind of data set: purified protein. Type of data set: biochemical, Escherichia coli. The note with it: 2-oxoglutarate, NAD+, ThDP, Mg2+, kcat of overall reaction.

Substrate in data set [5]: O=C(O)CCC(=O)C(=O)O
The data set is described as follows: purified protein. Type of data set: biochemical, Escherichia coli. The note with it: reassembled complex with wild-type E2o; CoA, NAD+, ThDP, Mg2+; kcat of overall reaction.

Where [6] appears, read: reassembled complex with wild-type E2o.

Residue numbers refer to the chain shown, from its start. Names and notes keep the numbering of the source.

T1 sequence (P0AFG6 94-405): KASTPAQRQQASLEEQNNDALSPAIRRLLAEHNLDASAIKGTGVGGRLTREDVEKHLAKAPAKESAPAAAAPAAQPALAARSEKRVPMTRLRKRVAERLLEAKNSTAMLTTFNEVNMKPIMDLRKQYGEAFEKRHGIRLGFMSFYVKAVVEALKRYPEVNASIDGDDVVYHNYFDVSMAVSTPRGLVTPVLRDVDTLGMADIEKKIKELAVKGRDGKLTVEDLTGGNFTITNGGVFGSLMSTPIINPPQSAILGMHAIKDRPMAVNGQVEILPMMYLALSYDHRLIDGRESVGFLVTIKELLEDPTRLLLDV

Turning to `CC(C)(COP(=O)(O)OP(=O)(O)OC[C@H]1O[C@@H](n2cnc3c(N)ncnc32)[C@H](O)[C@@H]1OP(=O)(O)O)[C@@H](O)C(=O)NCCC(=O)NCCSC(=O)CCC(=O)O` [succinyl-CoA, succinyl-coenzyme A], in data set [1], the “reverse succinyl transfer to dihydro-LDo, ESI FT-MS” value is recorded as “rate of succinyl transfer from succinyl‐CoA to the dihydro‐LDo”. The equilibrium dissociation constant (Kd) (commonly the concentration at which binding is half-saturated) in data set [2] turned out to be 47 µM.

`O=C(O)CCCC(=O)C(=O)O` [OA, 2-oxoadipate]: in data set [3] (100 μM LDo, 0.1 mM ThDP, 0.5 mM MgCl2, 35 mM NH4HCO3 pH 7.5, 2.5 mM OA), the “reductive acylation of LDo, ESI FT-MS” value is recorded as “could also be used by E1o as substrates for reductive acylation of LDo”.

Regarding `CC(=O)C(=O)O` [pyruvate], in data set [3] (LDo as acyl acceptor, ThDP, Mg2+), the “reductive acylation of LDo, ESI FT-MS” value is reported as “could also be used by E1o as substrates for reductive acylation of LDo”.

Turning to `CC(C)(COP(=O)(O)OP(=O)(O)OC[C@H]1O[C@@H](n2cnc3c(N)ncnc32)[C@H](O)[C@@H]1OP(=O)(O)O)[C@@H](O)C(=O)NCCC(=O)NCCS` [CoA, coenzyme A], the dissociation constant (Kd) in data set [2] amounted to 61.2 µM.

B1: OGDHc assembled from E1o, E2o and E3 (CoA site on E2o) (Escherichia coli K-12; H376W) (protein)
chain: SSVDILVPDLPESVADATVATWHKKPGDAVVRDEVLVEIETDKVVLEVPASADGILDAVLEDEGTTVTSRQILGRLREGNSAGKETSAKSEEKASTPAQRQQASLEEQNNDALSPAIRRLLAEHNLDASAIKGTGVGGRLTREDVEKHLAKAPAKESAPAAAAPAAQPALAARSEKRVPMTRLRKRVAERLLEAKNSTAMLTTFNEVNMKPIMDLRKQYGEAFEKRHGIRLGFMSFYVKAVVEALKRYPEVNASIDGDDVVYHNYFDVSMAVSTPRGLVTPVLRDVDTLGMADIEKKIKELAVKGRDGKLTVEDLTGGNFTITNGGVFGSLMSTPIINPPQSAILGMHAIKDRPMAVNGQVEILPMMYLALSYDWRLIDGRESVGFLVTIKELLEDPTRLLLDV
notes: components expressed separately in E. coli (pCA24N in AG1 for E1o and E2o) and reassembled at E1o:E2o:E3 mass ratio 1:1:1; with 2-oxoglutarate dehydrogenase E1 component; Dihydrolipoyl dehydrogenase
As to B1, in data set [4] (reassembled complex), the Michaelis constant (Km) (in general, the substrate concentration at which the rate is half of its maximum) was 13.3 µM; the turnover number (kcat) (usually the number of substrate molecules converted per active site and unit of time at saturation) amounted to 28.8 s⁻¹.

B2: OGDHc assembled from E1o, E2o and E3 (CoA site on E2o) (Escherichia coli K-12; D380A) (protein)
chain: B1 chain with W375H, D379A
notes: as for B1
For B2, in data set [4] (reassembled complex), the Km turned out to be 21.1 µM and the kcat worked out at 4.6 s⁻¹.

B3: OGDHc assembled from E1o, E2o and E3 (CoA site on E2o) (Escherichia coli K-12; R377A) (protein)
chain: B1 chain with W375H, R376A
notes: as for B1
As to B3, in data set [4] (reassembled complex), the Km came to 19.8 µM and the turnover number (kcat) came out at 27.0 s⁻¹.

B4: OGDHc assembled from E1o, E2o and E3 (CoA site on E2o) (Escherichia coli K-12; T324A) (protein)
chain: B1 chain with T323A, W375H
notes: as for B1
Consider B4, for which, in data set [4] (reassembled complex), the Km stood at 23.3 µM and the kcat is 21.7 s⁻¹.

B5: OGDHc assembled from E1o, E2o and E3 (CoA site on E2o) (Escherichia coli K-12; H376G) (protein)
chain: B1 chain with W375G
notes: as for B1
Consider B5, for which, in data set [4] (reassembled complex), the Km worked out at 20.6 µM and the kcat is 5.76 s⁻¹.

B6: OGDHc assembled from E1o, E2o and E3 (CoA site on E2o) (Escherichia coli K-12) (protein)
chain: B1 chain with W375H
notes: as for B1
For B6, in data set [4] (setting [6]), the Km turned out to be 20.4 µM and the turnover number (kcat) was determined as 48.0 s⁻¹.

B7: OGDHc assembled from E1o, E2o and E3 (2-oxoglutarate site on E1o) (Escherichia coli K-12) (protein)
chain: MQNSALKAWLDSSYLSGANQSWIEQLYEDFLTDPDSVDANWRSTFQQLPGTGVKPDQFHSQTREYFRRLAKDASRYSSTISDPDTNVKQVKVLQLINAYRFRGHQHANLDPLGLWQQDKVADLDPSFHDLTEADFQETFNVGSFASGKETMKLGELLEALKQTYCGPIGAEYMHITSTEEKRWIQQRIESGRATFNSEEKKRFLSELTAAEGLERYLGAKFPGAKRFSLEGGDALIPMLKEMIRHAGNSGTREVVLGMAHRGRLNVLVNVLGKKPQDLFDEFAGKHKEHLGTGDVKYHMGFSSDFQTDGGLVHLALAFNPSHLEIVSPVVIGSVRARLDRLDEPSSNKVLPITIHGDAAVTGQGVVQETLNMSKARGYEVGGTVRIVINNQVGFTTSNPLDARSTPYCTDIGKMVQAPIFHVNADDPEAVAFVTRLALDFRNTFKRDVFIDLVCYRRHGHNEADEPSATQPLMYQKIKKHPTPRKIYADKLEQEKVATLEDATEMVNLYRDALDAGDCVVAEWRPMNMHSFTWSPYLNHEWDEEYPNKVEMKRLQELAKRISTVPEAVEMQSRVAKIYGDRQAMAAGEKLFDWGGAENLAYATLVDEGIPVRLSGEDSGRGTFFHRHAVIHNQSNGSTYTPLQHIHNGQGAFRVWDSVLSEEAVLAFEYGYATAEPRTLTIWEAQFGDFANGAQVVIDQFISSGEQKWGRMCGLVMLLPHGYEGQGPEHSSARLERYLQLCAEQNMQVCVPSTPAQVYHMLRRQALRGMRRPLVVMSPKSLLRHPLAVSSLEELANGTFLPAIGEIDELDPKGVKRVVMCSGKVYYDLLEQRRKNNQHDVAIVRIEQLYPFPHKAMQEVLQQFAHVKDFVWCQEEPLNQGAWYCSQHHFREVIPFGASLRYAGRPASASPAVGYMSVHQKQQQDLVNDALNVE
notes: components expressed separately in E. coli (pCA24N in AG1 for E1o and E2o; E1o purified on Ni-Sepharose) and reassembled at E1o:E2o:E3 mass ratio 1:1:1; with Dihydrolipoyllysine-residue succinyltransferase component of 2-oxoglutarate dehydrogenase complex; Dihydrolipoyl dehydrogenase
Turning to B7, in data set [5], the Michaelis-Menten constant (Km) turned out to be 50 ± 11 µM; the kcat was found to be 48.0 s⁻¹; the specificity constant (kcat/Km) – broadly, the second-order rate constant that governs catalysis at low substrate concentration – worked out at 1.07e+06 M⁻¹ s⁻¹.
